Laboratory results as given in patent publication US20250320465A1 (FLAGSHIP PIONEERING INNOVATIONS V, published 2025).

Target: the molecule itself
Assay: structure of the VLP (self-assembly)

B1: Ring10-ORF1delCterm Helix (Ring10 ORF1 with a deletion of the C-terminus amino acids 610-672) VLP from Expi293 cells (other)
chain: MPWWYRRRSYNPWRRRNWFRRPRKTIYRRYRRRRRWVRRKPFYKRKIKRLNIVEWQPKSIRKCRIKGMLCLFQTTEDRLSYNFDMYEESIIPEKLPGGGGFSIKNISLYALYQEHIHAHNIFTHTNTDRPLARYTGCSLKFYQSKDIDYVVTYSTSLPLRSSMGMYNSMQPSIHLMQQNKLIVPSKQTQKRRKPYIKKHISPPTQMKSQWYFQHNIANIPLLMIRTTALTLDNYYIGSRQLSTNVTIHTLNTTYIQNRDWGDRNKTYYCQTLGTQRYFLYGTHSTAQNINDIKLQELIPLTNTQDYVQGFDWTEKDKHNITTYKEFLTKGAGNPFHAEWITAQNPVIHTANSPTQIEQIYTASTTTFQNKKLTDLPTPGYIFITPTVSLRYNPYKDLAERNKCYFVRSKINAHGWDPEQHQELINSDLPQWLLLFGYPDYIKRTQNFALVDTNYILVDHCPYTNPEKTPFIPLSTSFIEGRSPYSPSDTHEPDEEDQNRWYPCYQYQQESINSICLSGPGTPKIPKGITAEAKVKYSFNFKWGGDLPPMSTITNPTDQPTYVVPNNFNETTSLQNPTTRPEHFLYSFDERRGQLTEKATKRLLKDWETK
notes: also called Ring10-ORF1 delCterm-Helix (Δ610-672) (7052)
- binding result: binds
